Laboratory results as given in the Immune Epitope Database (IEDB).

Key:
HLA-A*02:01 [1] = assay: IEDB peptide-MHC binding, purified MHC/competitive/radioactivity; filed as Kd, often an IC50 or EC50 that approximates it; ≥ and ≤ were set here for values at or beyond the usual limits of such assays
HLA-A*68:02 = assay: as above
HLA-A*02:06 = assay: as above
HLA-B*53:01 = assay: as above; conditions: source organism: Dengue virus 1 Brazil/97-11/1997
HLA-A*02:03 = assay: as above
HLA-A*02:02 = assay: as above
HLA-A*01:01 = assay: as above; conditions: source organism: Dengue virus 3 Martinique/1243/1999
HLA-B*08:01 = assay: as above
HLA-B*15:01 [2] = assay: as above
HLA-B*57:01 = assay: IEDB peptide-MHC binding, purified MHC/direct/fluorescence; filed as Kd, often an IC50 or EC50 that approximates it; ≥ and ≤ were set here for values at or beyond the usual limits of such assays; conditions: source organism: Mycobacterium tuberculosis str. Haarlem
HLA-B*58:01 = assay: as above; conditions: source organism: Mycobacterium tuberculosis
HLA-B*15:01 [3] = assay: IEDB peptide-MHC binding, purified MHC/competitive/fluorescence; filed as Kd, often an IC50 or EC50 that approximates it; ≥ and ≤ were set here for values at or beyond the usual limits of such assays
HLA-A*02:01 [4] = assay: as above
HLA-A*03:01 [5] = assay: IEDB peptide-MHC binding, purified MHC/direct/fluorescence; filed as Kd, often an IC50 or EC50 that approximates it; ≥ and ≤ were set here for values at or beyond the usual limits of such assays; conditions: source organism: SARS-CoV1
HLA-B*15:01 [6] = assay: as above; conditions: source organism: SARS-CoV1
HLA-A*69:01 = assay: as above; conditions: source organism: SARS-CoV1
HLA-B*51:01 = assay: IEDB peptide-MHC binding, purified MHC/competitive/fluorescence; filed as Kd, often an IC50 or EC50 that approximates it; ≥ and ≤ were set here for values at or beyond the usual limits of such assays; conditions: source organism: Mycobacterium tuberculosis H37Ra
HLA-A*03:01 [7] = assay: IEDB peptide-MHC binding, purified MHC/competitive/radioactivity; filed as Kd, often an IC50 or EC50 that approximates it; ≥ and ≤ were set here for values at or beyond the usual limits of such assays; conditions: source organism: Dengue virus 4 Philippines/H241/1956
HLA-A*30:02 = assay: as above; conditions: source organism: Dengue virus 4 Philippines/H241/1956
HLA-B*40:01 = assay: as above
HLA-B*07:02 = assay: as above; conditions: source organism: Dengue virus 2 Jamaica/1409/1983
HLA-A*32:01 = assay: as above; conditions: source organism: Vaccinia virus WR
[8] = source organism: Dengue virus 1 Brazil/97-11/1997
[9] = source organism: Dengue virus 2 Jamaica/1409/1983
[10] = source organism: Vaccinia virus WR
[11] = source organism: Dengue virus 3 Martinique/1243/1999
[12] = source organism: Dengue virus 4 Philippines/H241/1956
[13] = source organism: Bacillus cereus G9241
[14] = source organism: Vaccinia virus Copenhagen
[15] = source organism: SARS coronavirus Tor2

VIEEVMNIV gave a Kd (HLA-A*02:01 [1]; source organism: Lassa virus GA391) of 6.25 µM.
Sequence NTTANISLTA has a Kd (HLA-A*68:02; [8]) of 0.0446 µM.
FIAFLRFLAI was tested, and the Kd (HLA-A*68:02; [8]) was 0.417 µM, the Kd (HLA-A*02:06; [8]) was 0.0149 µM and the Kd (HLA-B*53:01) was 1.32 µM.
Work on MTDDIGMGV yielded a Kd (HLA-A*68:02; [9]) of 0.00513 µM and a Kd (HLA-A*02:06; [9]) of 0.00705 µM.
LLQEENRQKL gave a Kd (HLA-A*68:02; source organism: Homo sapiens) of at least 60 µM.
For YVNAILYQI, the Kd (HLA-A*68:02; [10]) was 1.86 µM, the Kd (HLA-A*02:03; [10]) was 9.94 µM and the Kd (HLA-A*02:02; [10]) was 2.05 µM. For the same sequence, the Kd (HLA-A*02:06; [10]) was 1.98 µM and the Kd (HLA-A*02:01 [1]; [10]) was 1.43 µM.
Work on ETWNRQDLLV yielded a Kd (HLA-A*68:02; [8]) of 0.017 µM.
With MTTEDMLTV the Kd (HLA-A*68:02; [11]) was 0.0191 µM, the Kd (HLA-A*02:06; [11]) was 0.00285 µM and the Kd (HLA-A*01:01) was 7.38 µM.
In the case of LAGPMVAGGL, the Kd (HLA-B*08:01; [12]) is reported as 7.75 µM.
Sequence RSIRKFNTM has a Kd (HLA-B*15:01 [2]; [10]) of 0.00438 µM and a Kd (HLA-B*08:01; [10]) of 0.0169 µM.
Work on FCSHHFHEL yielded a Kd (HLA-B*08:01; [11]) of 0.135 µM.
In the case of SMPDFDLHL, the Kd (HLA-A*02:01 [1]; source organism: Homo sapiens) is reported as 0.0052 µM.
GAITSAHFM showed a Kd (HLA-B*57:01) of 0.687 µM and a Kd (HLA-B*58:01) of 0.905 µM.
For KRKLRTLIL, the Kd (HLA-B*08:01; [8]) was 0.462 µM.
For QLQPFLQPQL, the Kd (HLA-A*02:01 [1]; source organism: Triticum aestivum) was at least 10 µM.
Work on RTKAIGLNF yielded a Kd (HLA-B*15:01 [3]; [13]) of 0.0847 µM.
With YVFFEIIHF the Kd (HLA-B*15:01 [2]; [14]) was 0.000692 µM.
For ALRFFLQRL, the Kd (HLA-B*08:01; [10]) was 1.99 µM.
Sequence STMTLLCLI has a Kd (HLA-A*68:02; [12]) of 0.00375 µM.
With RMFHFFEHE the Kd (HLA-B*15:01 [2]; [10]) was 0.0669 µM.
LLALQQLEV showed a Kd (HLA-A*02:01 [4]; source organism: SARS-CoV1) of 0.0027 µM, a Kd (HLA-A*02:03; [15]) of 0.000295 µM and a Kd (HLA-A*02:02; [15]) of 0.000138 µM. For the same sequence, the Kd (HLA-A*02:06; [15]) was 0.0419 µM, the Kd (HLA-A*03:01 [5]) was 2.02 µM and the Kd (HLA-B*15:01 [6]) was 3.79 µM. The Kd (HLA-A*69:01) was 0.242 µM.
In the case of ELESQISEL, the Kd (HLA-A*68:02; source organism: Homo sapiens) is reported as at least 60 µM and the Kd (HLA-A*02:01 [1]; source organism: Homo sapiens) is reported as at least 78.1 µM.
LPVPLFPGF was tested, and the Kd (HLA-B*51:01) was 0.249 µM.
Sequence LIIICCVSG has a Kd (HLA-B*15:01 [2]; [14]) of 0.403 µM.
ALLAGFMAY showed a Kd (HLA-A*03:01 [7]) of 0.00167 µM, a Kd (HLA-B*15:01 [2]; [12]) of 0.00114 µM and a Kd (HLA-A*30:02) of 0.08 µM.
Sequence MVSAGSGEV has a Kd (HLA-A*68:02; [8]) of 0.0296 µM and a Kd (HLA-A*02:03; [8]) of 0.0946 µM.
FQTLMHSPF was tested, and the Kd (HLA-B*15:01 [3]; [13]) was 0.0231 µM.
FQNWGIESI gave a Kd (HLA-A*02:01 [4]; source organism: Influenza A virus (A/Wilson-Smith/1933(H1N1))) of 0.0023 µM.
Work on VEETNMITL yielded a Kd (HLA-B*40:01; source organism: Dengue virus 4 Dominica/814669/1981) of 0.0271 µM.
Sequence LLKFRVESC has a Kd (HLA-B*08:01; [14]) of 0.0744 µM.
In the case of LIIMDEAHF, the Kd (HLA-B*15:01 [2]; [9]) is reported as 0.019 µM.
FLETDAGRV showed a Kd (HLA-A*02:01 [1]; source organism: Variola virus) of 0.1 µM.
FIASKGVKLV gave a Kd (HLA-A*02:01 [1]; source organism: Homo sapiens) of 0.037 µM.
Sequence SPYVKFIYF has a Kd (HLA-B*08:01; [10]) of 1.78 µM.
In the case of LSEKWFTHA, the Kd (HLA-B*15:01 [2]; [10]) is reported as 19.1 µM.
With RLNALGKSEF the Kd (HLA-B*15:01 [2]; [9]) was 0.0172 µM.
In the case of AQGKPTLDF, the Kd (HLA-B*15:01 [2]; [12]) is reported as 0.00309 µM.
TQWCSRSVY gave a Kd (HLA-B*15:01 [3]; source organism: Escherichia coli 101-1) of 0.0843 µM.
For MECSPRTGL, the Kd (HLA-B*40:01; [9]) was 0.153 µM.
SAYTALFSGV was tested, and the Kd (HLA-A*68:02; [11]) was 0.00919 µM, the Kd (HLA-A*02:03; [11]) was 0.00714 µM and the Kd (HLA-A*02:06; [11]) was 0.00116 µM.
SNAAIGAVF showed a Kd (HLA-B*15:01 [2]; [8]) of 0.0778 µM.
With AGRRSVSGDL the Kd (HLA-B*08:01; [8]) was 9.26 µM.
In the case of QNHKKSAHF, the Kd (HLA-B*15:01 [2]; [10]) is reported as 0.412 µM.
With RVIDPRRCM the Kd (HLA-B*07:02) was 1.15 µM.
STANVSLAAI showed a Kd (HLA-A*68:02; [11]) of 0.00212 µM and a Kd (HLA-A*01:01) of at least 47.8 µM.
For LAKRFSKGLL, the Kd (HLA-B*08:01; [8]) was 2.53 µM.
In the case of SLNALFVML, the Kd (HLA-B*08:01; [10]) is reported as 1.26 µM and the Kd (HLA-A*32:01) is reported as 1.23 µM.
In the case of LINNGKCTF, the Kd (HLA-B*15:01 [2]; [10]) is reported as 0.0619 µM.
In the case of RRKRSVTMLL, the Kd (HLA-B*08:01; [8]) is reported as 3.65 µM.
